Source: patent US20230265151A1, “GIP/GLP1 CO-AGONIST COMPOUNDS” (priority 2020, published 2023)

Legend:
Assay in all cases: cell-based or functional assay
human GIP receptor = biological target: T1, human GIP receptor (human, UniProt P48546 22-466)
T1 sequence (looked up): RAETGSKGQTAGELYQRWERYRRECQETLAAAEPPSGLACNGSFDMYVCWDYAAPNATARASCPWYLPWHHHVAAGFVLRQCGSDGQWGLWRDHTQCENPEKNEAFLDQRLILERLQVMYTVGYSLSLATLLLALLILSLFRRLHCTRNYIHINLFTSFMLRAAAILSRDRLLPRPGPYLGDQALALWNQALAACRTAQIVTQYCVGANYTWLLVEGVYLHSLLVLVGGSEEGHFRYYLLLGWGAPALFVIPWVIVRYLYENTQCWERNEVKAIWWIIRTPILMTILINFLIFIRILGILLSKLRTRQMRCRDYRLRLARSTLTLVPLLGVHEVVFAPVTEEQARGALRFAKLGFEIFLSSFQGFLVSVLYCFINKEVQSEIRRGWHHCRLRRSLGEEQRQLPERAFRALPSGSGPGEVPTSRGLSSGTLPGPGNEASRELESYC

human GLP-1 receptor = human GLP-1 receptor (human, UniProt P43220 24-463)
human glucagon receptor = human glucagon receptor (human, UniProt P47871 26-477)
hGLP-1R = hGLP-1R (Homo sapiens, UniProt P43220)
[1] = biological target: T2, human GIP receptor (human) (UniProt P48546)
T2 sequence (looked up): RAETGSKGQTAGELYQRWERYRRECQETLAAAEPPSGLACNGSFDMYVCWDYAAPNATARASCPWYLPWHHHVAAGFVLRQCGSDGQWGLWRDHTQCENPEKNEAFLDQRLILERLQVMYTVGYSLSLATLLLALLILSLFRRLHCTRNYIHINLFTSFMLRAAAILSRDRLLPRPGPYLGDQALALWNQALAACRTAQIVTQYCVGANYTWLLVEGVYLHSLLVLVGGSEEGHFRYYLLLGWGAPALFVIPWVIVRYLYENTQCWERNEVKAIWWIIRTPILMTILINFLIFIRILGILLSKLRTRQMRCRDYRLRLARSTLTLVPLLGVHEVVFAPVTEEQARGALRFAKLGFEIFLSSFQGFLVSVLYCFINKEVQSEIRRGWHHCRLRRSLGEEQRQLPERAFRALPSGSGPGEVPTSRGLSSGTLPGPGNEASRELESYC

[2] = biological target: human glucagon receptor (human) (UniProt P47871)

human glucagon receptor, sequence (P47871 26-477): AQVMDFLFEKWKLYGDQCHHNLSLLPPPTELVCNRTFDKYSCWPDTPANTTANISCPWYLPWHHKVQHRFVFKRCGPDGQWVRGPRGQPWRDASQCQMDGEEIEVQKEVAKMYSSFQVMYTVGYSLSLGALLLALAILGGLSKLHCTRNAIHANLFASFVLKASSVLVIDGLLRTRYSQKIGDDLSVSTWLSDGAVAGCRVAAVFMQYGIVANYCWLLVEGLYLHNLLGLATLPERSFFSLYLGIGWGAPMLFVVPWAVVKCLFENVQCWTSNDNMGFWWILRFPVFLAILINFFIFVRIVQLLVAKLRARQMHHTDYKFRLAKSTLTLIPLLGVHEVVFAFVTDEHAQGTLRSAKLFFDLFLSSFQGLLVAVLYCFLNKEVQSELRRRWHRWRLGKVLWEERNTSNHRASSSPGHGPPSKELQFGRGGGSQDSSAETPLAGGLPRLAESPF

B1: Example 487 (peptide)
peptide: YXEGTXTSDXXIXLDXQAQXXFIKXLIKGGPSSGAPPPS
modifications: Y-Aib-EGT-αMeF(2F)-TSD-4Pal-Aib-I-αMeL-LD-Orn-QAQ-Aib-Orn-FIK((2-[2-(2-Amino-ethoxy)-ethoxy]-acetyl)-(γ-Glu)3-(10-(4-carboxyphenoxy)decanoyl))-αMeY-LIK((2-[2-(2-Amino-ethoxy)-ethoxy]-acetyl)-(γ-Glu)3--(10-(4-carboxyphenoxy)decanoyl))GGPSSGAPPPS-NH2
Human GIP receptor
  cAMP EC50 (1.0% HSA): 0.429 nM
Human GLP-1 receptor
  cAMP EC50 (1.0% HSA): 3.16 nM
Human glucagon receptor
  cAMP EC50 (1.0% HSA): > 9950 nM

B2: Example 483 (peptide)
peptide: YXEGTXTSDXXIXLDXQAQXXFIKXLIKGGPSSGAPPPS
modifications: Y-Aib-EGT-αMeF(2F)-TSD-4Pal-Aib-I-αMeL-LD-Orn-QAQ-Aib-Orn-FIK((γ-Glu)-(2-[2-(2-Amino-ethoxy)-ethoxy]-acetyl)2-(γ-Glu)-(10-(4-carboxyphenoxy)decanoyl))-αMeY-LIK((γ-Glu)-(2-[2-(2-Amino-ethoxy)-ethoxy]-acetyl)2-(γ-Glu)-(10-(4-carboxyphenoxy)decanoyl))GGPSSGAPPPS-NH2
Human GIP receptor
  cAMP EC50 (1.0% HSA): 0.297 nM
Human GLP-1 receptor
  cAMP EC50 (1.0% HSA): 3.33 nM
Human glucagon receptor
  cAMP EC50 (1.0% HSA): > 9950 nM

B3: Example 482 (peptide)
peptide: YXEGTXTSDXXIXLDXQAQXXFIKXLIKGGPSSGAPPPS
modifications: Y-Aib-EGT-αMeF(2F)-TSD-4Pal-Aib-I-αMeL-LD-Orn-QAQ-Aib-Orn-FIK((γ-Glu)-(2-[2-(2-Amino-ethoxy)-ethoxy]-acetyl)2-(γ-Glu)-CO-(CH2)12-CO2H)-αMeY-LIK((γ-Glu)-(2-[2-(2-Amino-ethoxy)-ethoxy]-acetyl)2-(γ-Glu)-CO-(CH2)12-CO2H)GGPSSGAPPPS-NH2
Human GIP receptor
  cAMP EC50 (1.0% HSA): 0.89 nM
Human GLP-1 receptor
  cAMP EC50 (1.0% HSA): 4.85 nM
Human glucagon receptor
  cAMP EC50 (1.0% HSA): > 9950 nM

B4: Example 493 (peptide)
peptide: YXEGTXTSDXXIXLDXQAQXXFIKXLIKGGPSSGAPPPS
modifications: Y-Aib-EGT-αMeF(2F)-TSD-4Pal-Aib-I-αMeL-LD-Orn-QAQ-Aib-4Pal-FIK((2-[2-(2-Amino-ethoxy)-ethoxy]-acetyl)2-(γ-Glu)-(10-(4-carboxyphenoxy)decanoyl))-αMeY-LIK((2-[2-(2-Amino-ethoxy)-ethoxy]-acetyl)2-(γ-Glu)-(10-(4-carboxyphenoxy)decanoyl))GGPSSGAPPPS-NH2
Human GIP receptor
  cAMP EC50 (1.0% HSA): 0.591 nM
Human GLP-1 receptor
  cAMP EC50 (1.0% HSA): 7.24 nM
Human glucagon receptor
  cAMP EC50 (1.0% HSA): > 9950 nM

B5: Example 484 (peptide)
peptide: YXEGTXTSDXXIXLDXQAQXXFIKXLIKGGPSSGAPPPS
modifications: Y-Aib-EGT-αMeF(2F)-TSD-4Pal-Aib-I-αMeL-LD-Orn-QAQ-Aib-Orn-FIK((2-[2-(2-Amino-ethoxy)-ethoxy]-acetyl)-(γ-Glu)-(2-[2-(2-Amino-ethoxy)-ethoxy]-acetyl)-(γ-Glu)-CO-(CH2)12-CO2H)-αMeY-LIK((2-[2-(2-Amino-ethoxy)-ethoxy]-acetyl)-(γ-Glu)-(2-[2-(2-Amino-ethoxy)-ethoxy]-acetyl)-(γ-Glu)-CO-(CH2)12-CO2H)GGPSSGAPPPS-NH2
Human GIP receptor
  cAMP EC50 (1.0% HSA): 0.453 nM
Human GLP-1 receptor
  cAMP EC50 (1.0% HSA): 3.66 nM
Human glucagon receptor
  cAMP EC50 (1.0% HSA): > 9950 nM

B6: Example 360 (peptide)
peptide: YXEGTXTSDXXIXLDXKAQXKFIXXLIEGGPSSGAPPPS
modifications: Y-Aib-EGT-αMeF(2F)-TSD-4Pal-Aib-I-αMeL-LD-Orn-K((2-[2-(2-Amino-ethoxy)-ethoxy]-acetyl)-(γ-Glu)-(10-(4-carboxyphenoxy)decanoyl))AQ-Aib-K((2-[2-(2-Amino-ethoxy)-ethoxy]-acetyl)-(γ-Glu)-(10-(4-carboxyphenoxy)decanoyl))FI-(D-Glu)-αMeY-LIEGGPSSGAPPPS-NH2
hGLP-1R
  cAMP EC50: 0.301 nM
  cAMP Emax: 89.8%
[1]
  cAMP EC50: 0.0121 nM
  cAMP Emax: 106%
[2]
  cAMP EC50: > 9950 nM
Human GIP receptor
  cAMP EC50 (1.0% HSA): 1.91 nM
Human GLP-1 receptor
  cAMP EC50 (1.0% HSA): 28.2 nM
Human glucagon receptor
  cAMP EC50 (1.0% HSA): > 9950 nM

B7: Example 425 (peptide)
peptide: YXEGTXTSDKXIXLDXKAQXEFIXXLIEGGPSSGAPPPS
modifications: Y-Aib-EGT-αMeF(2F)-TSDK((2-[2-(2-Amino-ethoxy)-ethoxy]-acetyl)-(γ-Glu)-CO-(CH2)10-CH3)-Aib-I-αMeL-LD-Orn-K((2-[2-(2-Amino-ethoxy)-ethoxy]-acetyl)-(γ-Glu)-CO-(CH2)10-CH3)AQ-Aib-EFI-(D-Glu)-αMeY-LIEGGPSSGAPPPS-NH2
hGLP-1R
  cAMP EC50: 0.0965 nM
  cAMP Emax: 108%
[1]
  cAMP EC50: 0.00943 nM
  cAMP Emax: 97.6%
[2]
  cAMP EC50: > 9950 nM
Human GIP receptor
  cAMP EC50 (1.0% HSA): 0.875 nM
  cAMP Emax (1.0% HSA): 89.9%
Human glucagon receptor
  cAMP EC50 (1.0% HSA): > 9950 nM

B8: Example 416 (peptide)
peptide: YXEGTXTSDXXIXLDXKAQXXFIXXLIKGGPSSGAPPPS
modifications: Y-Aib-EGT-αMeF(2F)-TSD-4Pal-Aib-I-αMeL-LD-Orn-K((2-[2-(2-Amino-ethoxy)-ethoxy]-acetyl)2-(γ-Glu)-CO-(CH2)10-CH3)AQ-Aib-4Pal-FI-(D-Glu)-αMeY-LIK((2-[2-(2-Amino-ethoxy)-ethoxy]-acetyl)2-(γ-Glu)-CO-(CH2)10-CH3)GGPSSGAPPPS-NH2
hGLP-1R
  cAMP EC50: 0.332 nM
  cAMP Emax: 104%
[1]
  cAMP EC50: 0.0214 nM
  cAMP Emax: 99%
[2]
  cAMP EC50: > 9950 nM
Human GIP receptor
  cAMP EC50 (1.0% HSA): 0.723 nM
  cAMP Emax (1.0% HSA): 83%
Human glucagon receptor
  cAMP EC50 (1.0% HSA): > 9950 nM

B9: Example 359 (peptide)
peptide: YXEGTXTSDXXIXLDXKAQXEFIXXLIEGGPSSGAPPPSK
modifications: Y-Aib-EGT-αMeF(2F)-TSD-4Pal-Aib-I-αMeL-LD-Orn-K((2-[2-(2-Amino-ethoxy)-ethoxy]-acetyl)2-(γ-Glu)-CO-(CH2)12-CO2H)AQ-Aib-EFI-(D-Glu)-αMeY-LIEGGPSSGAPPPSK((2-[2-(2-Amino-ethoxy)-ethoxy]-acetyl)2-(γ-Glu)-CO-(CH2)12-CO2H)-NH2
hGLP-1R
  cAMP EC50: 1.18 nM
  cAMP Emax: 104%
[1]
  cAMP EC50: 0.0261 nM
  cAMP Emax: 103%
[2]
  cAMP EC50: > 10100 nM
Human GIP receptor
  cAMP EC50 (1.0% HSA): 1.58 nM
  cAMP Emax (1.0% HSA): 81%
Human GLP-1 receptor
  cAMP EC50 (1.0% HSA): 40.5 nM
  cAMP Emax (1.0% HSA): 95.1%
Human glucagon receptor
  cAMP EC50 (1.0% HSA): > 9950 nM

B10: Example 362 (peptide)
peptide: YXEGTXTSDXXIXLDXKAQXEFIXXLIEGGPSSGAPPPSK
modifications: Y-Aib-EGT-αMeF(2F)-TSD-4Pal-Aib-I-αMeL-LD-Orn-K((2-[2-(2-Amino-ethoxy)-ethoxy]-acetyl)-(y-Glu)-(10-(4-carboxyphenoxy)decanoyl))AQ-Aib-EFI-(D-Glu)-αMeY-LIEGGPSSGAPPPSK((2-[2-(2-Amino-ethoxy)-ethoxy]-acetyl)-(γ-Glu)-(10-(4-carboxyphenoxy)decanoyl))-NH2
hGLP-1R
  cAMP EC50: 0.34 nM
  cAMP Emax: 109%
[1]
  cAMP EC50: 0.0131 nM
[2]
  cAMP EC50: > 10100 nM
Human GIP receptor
  cAMP EC50 (1.0% HSA): 0.936 nM
Human GLP-1 receptor
  cAMP EC50 (1.0% HSA): 29.9 nM
Human glucagon receptor
  cAMP EC50 (1.0% HSA): > 9950 nM
